Tests used:
[1] = target: T1, wild-type STAT1, overexpressed (pLVX-STAT1-WT), lactylated in BMSCs on the PCL/nHA/SL scaffold (UniProt P42224 1-750, lysine lactylation, elevated 2.4-fold on the scaffold (Klac 0.797 ± 0.105); K193 named as the key lactylation site); assay: cell-based or functional assay
T1 sequence (looked up): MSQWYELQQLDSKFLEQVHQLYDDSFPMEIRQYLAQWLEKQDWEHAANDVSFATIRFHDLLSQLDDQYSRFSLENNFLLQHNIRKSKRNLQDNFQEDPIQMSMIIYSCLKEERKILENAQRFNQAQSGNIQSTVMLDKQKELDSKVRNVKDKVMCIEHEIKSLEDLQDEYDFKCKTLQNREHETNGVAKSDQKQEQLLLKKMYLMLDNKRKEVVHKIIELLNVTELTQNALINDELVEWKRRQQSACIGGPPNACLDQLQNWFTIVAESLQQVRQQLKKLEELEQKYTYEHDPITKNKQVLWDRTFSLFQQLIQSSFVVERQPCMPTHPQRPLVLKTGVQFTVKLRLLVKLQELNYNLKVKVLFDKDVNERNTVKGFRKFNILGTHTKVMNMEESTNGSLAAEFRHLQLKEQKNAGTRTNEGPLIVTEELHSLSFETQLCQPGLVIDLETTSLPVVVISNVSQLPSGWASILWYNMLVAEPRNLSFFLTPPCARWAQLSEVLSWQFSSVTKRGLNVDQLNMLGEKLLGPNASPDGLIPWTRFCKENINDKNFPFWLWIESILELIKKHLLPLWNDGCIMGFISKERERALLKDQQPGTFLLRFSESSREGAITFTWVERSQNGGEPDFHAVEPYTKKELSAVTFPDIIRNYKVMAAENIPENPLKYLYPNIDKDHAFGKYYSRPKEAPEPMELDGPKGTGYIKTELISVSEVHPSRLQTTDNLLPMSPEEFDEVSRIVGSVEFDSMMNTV

[2] = target: T2, STAT1, endogenous in BMSCs (human (endogenous in BMSCs), UniProt P42224 1-750); assay: co-IP; BMSC lysates, no osteogenic induction, 48h post-transfection; STAT1 antibody for pull-down with IgG control, Protein A/G agarose; blots probed for lactylation and Runx2; cells scaffold-free or on PCL/nHA/SL scaffold; band intensities quantified; conditions: partners not purified
T2 construct: STAT1, endogenous in human bone marrow mesenchymal stem cells (ATCC PCS-500-012); STAT1 precipitated with anti-STAT1 antibody from scaffold-free Runx2-OE cells, which carry no STAT1 construct; source: endogenous, human BMSC lysate
T2 sequence (looked up): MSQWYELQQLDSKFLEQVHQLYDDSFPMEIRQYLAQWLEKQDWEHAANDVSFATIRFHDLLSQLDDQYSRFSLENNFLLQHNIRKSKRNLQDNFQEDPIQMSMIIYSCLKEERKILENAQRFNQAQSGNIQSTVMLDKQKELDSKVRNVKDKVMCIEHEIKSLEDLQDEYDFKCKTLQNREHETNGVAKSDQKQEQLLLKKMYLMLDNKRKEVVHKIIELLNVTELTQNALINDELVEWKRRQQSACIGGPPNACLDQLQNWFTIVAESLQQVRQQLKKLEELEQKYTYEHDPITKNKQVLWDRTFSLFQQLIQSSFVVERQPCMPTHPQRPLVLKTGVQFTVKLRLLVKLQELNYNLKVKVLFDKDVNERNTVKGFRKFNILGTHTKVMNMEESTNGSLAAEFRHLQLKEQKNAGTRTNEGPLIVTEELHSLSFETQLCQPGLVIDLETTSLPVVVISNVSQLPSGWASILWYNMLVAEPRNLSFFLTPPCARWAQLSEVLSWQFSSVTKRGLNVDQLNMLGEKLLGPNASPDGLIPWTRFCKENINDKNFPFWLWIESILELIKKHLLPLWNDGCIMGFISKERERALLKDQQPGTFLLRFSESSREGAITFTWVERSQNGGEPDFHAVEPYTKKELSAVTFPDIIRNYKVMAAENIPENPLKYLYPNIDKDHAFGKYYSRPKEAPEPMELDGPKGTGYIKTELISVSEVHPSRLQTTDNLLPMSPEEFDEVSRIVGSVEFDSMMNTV

[3] = target: T3, wild-type STAT1, overexpressed (pLVX-STAT1-WT), scaffold-free BMSCs (UniProt P42224 1-750); assay: as above; conditions: partners not purified
T3 construct: STAT1, wild type; No tag is stated for this experiment (the rescue lentivirus of another experiment is HA-tagged); The anti-STAT1 antibody precipitates the endogenous STAT1 as well; Lactylation was low in these cells (0.327 ± 0.046); also called STAT1-OE; source: human BMSCs, lentiviral transduction (pLVX-STAT1-WT), scaffold-free, in lysate
T3 sequence (looked up): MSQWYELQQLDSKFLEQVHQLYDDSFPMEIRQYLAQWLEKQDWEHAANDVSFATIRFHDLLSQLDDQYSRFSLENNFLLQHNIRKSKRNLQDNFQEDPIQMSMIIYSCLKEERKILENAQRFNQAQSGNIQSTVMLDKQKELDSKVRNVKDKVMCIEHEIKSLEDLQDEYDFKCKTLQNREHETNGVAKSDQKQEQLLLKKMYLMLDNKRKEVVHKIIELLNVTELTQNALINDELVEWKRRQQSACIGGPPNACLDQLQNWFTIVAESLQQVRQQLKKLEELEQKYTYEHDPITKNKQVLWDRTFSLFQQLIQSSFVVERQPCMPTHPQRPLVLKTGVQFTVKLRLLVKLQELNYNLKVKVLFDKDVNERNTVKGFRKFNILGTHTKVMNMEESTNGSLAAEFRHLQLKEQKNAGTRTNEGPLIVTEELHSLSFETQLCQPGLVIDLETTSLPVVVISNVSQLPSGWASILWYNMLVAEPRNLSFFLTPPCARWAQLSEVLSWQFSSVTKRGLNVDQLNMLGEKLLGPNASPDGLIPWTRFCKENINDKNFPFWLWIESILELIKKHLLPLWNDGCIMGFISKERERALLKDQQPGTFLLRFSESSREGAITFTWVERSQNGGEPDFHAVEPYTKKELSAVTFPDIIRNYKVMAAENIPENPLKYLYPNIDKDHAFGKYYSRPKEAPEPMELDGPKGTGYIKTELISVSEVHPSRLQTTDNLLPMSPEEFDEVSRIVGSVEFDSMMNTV

[4] = target: T1, wild-type STAT1, overexpressed …; assay: as above; conditions: partners not purified

B1: Runx2, overexpressed (pLVX-Runx2) (natural protein, UniProt Q13950 1-521, looked up)
chain: MASNSLFSTVTPCQQNFFWDPSTSRRFSPPSSSLQPGKMSDVSPVVAAQQQQQQQQQQQQQQQQQQQQQQQEAAAAAAAAAAAAAAAAAVPRLRPPHDNRTMVEIIADHPAELVRTDSPNFLCSVLPSHWRCNKTLPVAFKVVALGEVPDGTVVTVMAGNDENYSAELRNASAVMKNQVARFNDLRFVGRSGRGKSFTLTITVFTNPPQVATYHRAIKVTVDGPREPRRHRQKLDDSKPSLFSDRLSDLGRIPHPSMRVGVPPQNPRPSLNSAPSPFNPQGQSQITDPRQAQSSPPWSYDQSYPSYLSQMTSPSIHSTTPLSSTRGTGLPAITDVPRRISDDDTATSDFCLWPSTLSKKSQAGASELGPFSDPRQFPSISSLTESRFSNPRMHYPATFTYTPPVTSGMSLGMSATTHYHTYLPPPYPGSSQSQSGPFQTSSTPYLYYGTSSGSYQFPMVPGGDRSPSRMLPPCTTTSNGSTLLNPNLPNQNDGVDADGSHSSSPTVLNSSGRMDESVWRPY
notes: Runx2; The anti-Runx2 blot also sees the endogenous Runx2 of the BMSCs; also called Runx2-OE; source: human BMSCs, lentiviral transduction (pLVX-Runx2), in lysate
For B1, the “Osteocalcin protein (Western blot) in Runx2-OE + STAT1-OE BMSCs on the PCL/nHA/SL scaffold, rescued to STAT1-KD-like levels” value [1] was 0.474, the “relative co-IP band intensity” value [2] was 0.582 and the “relative co-IP band intensity” value [3] was 0.845. The “relative co-IP band intensity” value [4] was 0.286.

Source: publication PMC12302927, “Lactate-functionalized 3D-printed PCL/nHA scaffold drives BMSC osteogenesis via metabolic-epigenetic crosstalk” (Materials Today Bio, 2025)
